Four substances from patent publication US7470769B2, “Epidermal growth factor receptor antagonists and methods of use” (Molecular Logix, Inc., priority 2004, dated 2008) can be followed below.

The target in assay [1] is T1, EGFR in the form of A431 cell membrane receptor preparations (Homo sapiens, UniProt P00533).
T1 construct: EGFR in the form of A431 cell membrane receptor preparations; endogenous in cells; host or cells: A431 cell membranes
Put plainly: EGFR kinase ELISA. The class given is biochemical. To be noted: variant alone, compared with MLX hEGF. The protocol: (§1) To examine the kinase activity of epidermal growth factor receptor (EGFR) in the presence of hEGF and EGF variants, an ELISA was developed. Briefly, an ELISA plate is coated with poly-glu, tyr (4:1) which serves as a substrate for tyrosine phosphorylation by the EGFR. The ELISA plate is then incubated with assay buffer, which includes an ATP generating system, EGFR in the form of A431 cell membrane receptor preparations, and EGF variant. After a 15 minute incubation ATP is added to the reaction to allow the kinase activity to proceed. Anti-phosphotyrosine antibody is added to bind to the phosphorylated tyrosine bound to the plate. Anti-mouse HRP conjugate antibody is added as the detection antibody, which is visualized with the addition of tetramethyl benzidine (TMB).
The glycine at position 18 was replaced by glutamate (G18E), glutamine (G18Q), lysine (G18K), phenylalanine (G18F), and leucine (G18L). These variants were tested in the kinase assay described above and compared with recombinant wild-type human EGF (MLX hEGF).
The following variations in the glycine at position 39 were made: G39E, G39Q, G39K, and G39L.

In the next assay the test system is BALB/3T3 cells. Put plainly: BALB/3T3 proliferation competition assay with hEGF. It is filed as cell-based, murine. To be noted: 0.5 nM and 5.0 nM hEGF, 48 hours. How it is done: The BALB/3T3 proliferation assay was modified to test variants for competition with hEGF in the stimulation of BALB/3T3 cell proliferation. Serial dilutions of the test mutants were tested for proliferation in the presence of 0 nM, 0.5 nM, and 5 nM of the MLX-hEGF. BALB/3T3 cells were suspended at 3E4 cells/ml in complete serum media. 100 ul of cell suspension was plated per well in 96-well plates and incubated for 20-24 hours. Media was then aspirated from the wells, and the cells were washed once with DPBS. His-tagged wild-type hEGF at twice the final concentration was added in 50 ul/well. Serial dilutions of test mutants were prepared at twice the final concentration in serum-free media and 50 ul was added per well, bringing the final volume per well to 100 ml at the target concentrations of wt-hEGF and test mutants. Assay plates were incubated for 48 hours and cell proliferation was determined with WST-1 cell proliferation reagent (10 ul/well, 5 hr incubation). The absorbance at 450 nm was read with a microplate reader.

Assay [2] has as its system HER5 cell line (expresses the human EGF receptor). Put plainly: HER5 cell proliferation assay (WST-1). It is filed as cell-based, murine. To be noted: 48 hour proliferation, serum-free, WST-1 OD 450. (In general: Formazan colour is commonly taken as a measure of viable cells.)
Method: The HER5 cell line, a murine fibroblast line (derived from the NR-6 line) that has been stably transfected to express the human EGF receptor was provided by Dr. M. C. Hung (MD Anderson Cancer Center). Stock cultures of HER5 were propagated in D-MEM/F12 medium containing 10% fetal bovine serum, 100 units/ml of penicillin and 100 ug/ml of streptomycin in a water-jacketed incubator at 37° C. in a humidified 5% CO2 atmosphere. For HER5 proliferation assays, the cells were changed into DMEM/F12 without serum for 24 hours. Cells were then trypsinized and suspended at 1E5 cells/ml. Serial dilutions of hEGF (PeproTech, Rocky Hill, N.J.), His-tagged hEGF, test proteins were prepared in serum-free DMEM/F12 at 2-fold the final concentration and plated into the wells of 96-well plates. Fifty microliters of cell suspension (5000 cells) were added to appropriate wells bringing the total volume to 100 ul at the desired concentrations. Plates were incubated for a 48 hour proliferation period. Cell proliferation was determined by addition of 10 ul/well of WST-1 Cell Proliferation Reagent (Roche Applied Sciences, Indianapolis, Ind.) for the last three hours of the proliferation period. […] The amount of formazan was measured at 450 nm using a microplate reader (Dynex Technologies) with MRX Revelation software.
Assay [3] has as its system hEGF-stimulated cell proliferation. Put plainly: Inhibition of hEGF-stimulated cell proliferation (FIG. 4, FIG. 5). Conditions: figure legends, cell line not stated. It is filed as cell-based.
Assay [4] concerns the target T1, EGFR in the form of A431 cell membrane receptor preparations. Put plainly: EGFR kinase competition ELISA. The class given is biochemical. Conditions: 50 nM human EGF added. The protocol:
as §1
The EGFR kinase competition assay is basically the same as outlined above in the description of the kinase ELISA. The difference is that in the initial incubation with the EGFR and EGF variant, 50 nM human EGF is added which competes with the EGF variant for binding to the EGFR. Both the variant EGF and the human EGF are added to the assay plate before the addition of the EGFR and assay buffer, making sure neither ligand has an advantage in binding to the EGFR.

In another assay the target is EGFR (Homo sapiens, UniProt P00533). Put plainly: EGFR dimerization (FIG. 6).

As for “G39E: hEGF polypeptide variant, G39 replaced by glutamate (NSDSECPLSHDGYCLHDGVCMYIEALDKYACNCVVGYIEERCQYRDLKWWELR; not fully specified; left off: small tags and cut ends)”, in assay [1], the “activation of the EGFR kinase” value is “some slight activity”.

Turning to “G39K: hEGF polypeptide variant, G39 replaced by lysine (NSDSECPLSHDGYCLHDGVCMYIEALDKYACNCVVGYIKERCQYRDLKWWELR; not fully specified; left off: small tags and cut ends)”, the “competition with hEGF in stimulation of BALB/3T3 cell proliferation” value in the assay with BALB/3T3 cells is “Apparent competition was observed at both hEGF concentrations”. Further, the “potency in the HER5 proliferation assay” value in assay [2] is on record as “least potency in that series”. Also, the “activation of the EGFR kinase” value in assay [1] is reported as “some slight activity”.

Consider “G39L: hEGF polypeptide variant, G39 replaced by leucine (NSDSECPLSHDGYCLHDGVCMYIEALDKYACNCVVGYILERCQYRDLKWWELR; not fully specified; left off: small tags and cut ends)”, for which the “inhibition of hEGF-stimulated cell proliferation” value in assay [3] is reported as “inhibition of hEGF-stimulated cell proliferation”. Besides, the “competition with hEGF-related stimulation of EGFR kinase” value in assay [4] was “marked interference with hEGF-related stimulation of EGFR kinase”. Also, in the assay on BALB/3T3 cells, the “competition with hEGF in stimulation of BALB/3T3 cell proliferation” value is “only seen in at 0.5 nM hEGF”. Also, in assay [2], the “potency in the HER5 proliferation assay” value is “least potency in that series”.

For the substance “V35EG39L: hEGF polypeptide variant, glycine 39 substituted with leucine and valine 35 with glutamic acid (NSDSECPLSHDGYCLHDGVCMYIEALDKYACNCVEGYILERCQYRDLKWWELR; not fully specified; left off: small tags and cut ends)”, the “inhibition of hEGF-stimulated cell proliferation” value in assay [3] is on record as “inhibition of hEGF-stimulated cell proliferation”. Besides, the “competition with hEGF-related stimulation of EGFR kinase” value in assay [4] is “marked interference with hEGF-related stimulation of EGFR kinase”. The “triggering of EGFR dimerization” value in the assay with EGFR was “does not trigger EGFR dimerization”. Also, the “activation of the EGFR kinase” value in assay [1] is “unable to activate the EGFR kinase”.
